Assays:
[1] = molecular target: T1, neurotrypsin-resistant mouse agrin C44 y4z8K/A (m)
T1 chain: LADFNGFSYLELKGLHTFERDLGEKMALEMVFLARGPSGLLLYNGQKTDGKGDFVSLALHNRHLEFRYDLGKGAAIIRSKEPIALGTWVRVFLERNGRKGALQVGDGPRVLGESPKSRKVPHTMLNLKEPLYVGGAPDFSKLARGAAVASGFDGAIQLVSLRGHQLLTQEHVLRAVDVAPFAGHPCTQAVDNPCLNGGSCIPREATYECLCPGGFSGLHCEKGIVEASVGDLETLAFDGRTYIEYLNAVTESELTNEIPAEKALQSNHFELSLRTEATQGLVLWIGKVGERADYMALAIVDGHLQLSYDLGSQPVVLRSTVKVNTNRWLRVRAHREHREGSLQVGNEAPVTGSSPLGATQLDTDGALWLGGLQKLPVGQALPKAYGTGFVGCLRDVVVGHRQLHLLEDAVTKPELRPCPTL

[2] = molecular target: T2, neurotrypsin-resistant mouse agrin C44 y0z8K/A (m)
T2 chain: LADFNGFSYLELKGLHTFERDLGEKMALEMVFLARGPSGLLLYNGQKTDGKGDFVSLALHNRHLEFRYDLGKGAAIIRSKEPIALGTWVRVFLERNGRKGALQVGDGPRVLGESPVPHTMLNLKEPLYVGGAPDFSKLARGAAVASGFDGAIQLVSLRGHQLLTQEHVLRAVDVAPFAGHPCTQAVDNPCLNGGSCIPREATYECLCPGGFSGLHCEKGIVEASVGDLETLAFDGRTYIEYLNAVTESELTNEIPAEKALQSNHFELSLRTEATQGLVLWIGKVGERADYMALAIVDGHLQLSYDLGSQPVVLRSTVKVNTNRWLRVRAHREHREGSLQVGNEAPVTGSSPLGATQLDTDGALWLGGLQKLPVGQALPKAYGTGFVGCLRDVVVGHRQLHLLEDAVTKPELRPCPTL

human agrinC44 y4z8 = molecular target: T3, human agrinC44 y4z8
T3 chain: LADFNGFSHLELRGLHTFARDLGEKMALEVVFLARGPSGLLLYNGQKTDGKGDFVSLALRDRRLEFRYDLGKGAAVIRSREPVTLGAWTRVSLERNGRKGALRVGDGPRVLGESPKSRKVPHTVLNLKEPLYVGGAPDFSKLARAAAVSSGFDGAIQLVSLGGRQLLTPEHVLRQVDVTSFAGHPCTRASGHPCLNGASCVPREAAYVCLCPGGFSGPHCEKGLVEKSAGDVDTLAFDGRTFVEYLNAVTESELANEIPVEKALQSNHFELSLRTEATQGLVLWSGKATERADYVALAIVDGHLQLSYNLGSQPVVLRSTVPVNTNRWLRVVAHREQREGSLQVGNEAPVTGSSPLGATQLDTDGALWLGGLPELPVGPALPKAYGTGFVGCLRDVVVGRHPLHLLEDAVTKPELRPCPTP

[3] = molecular target: T4, neurotrypsin-resistant human agrin C44 y0z8K/A (h)
T4 chain: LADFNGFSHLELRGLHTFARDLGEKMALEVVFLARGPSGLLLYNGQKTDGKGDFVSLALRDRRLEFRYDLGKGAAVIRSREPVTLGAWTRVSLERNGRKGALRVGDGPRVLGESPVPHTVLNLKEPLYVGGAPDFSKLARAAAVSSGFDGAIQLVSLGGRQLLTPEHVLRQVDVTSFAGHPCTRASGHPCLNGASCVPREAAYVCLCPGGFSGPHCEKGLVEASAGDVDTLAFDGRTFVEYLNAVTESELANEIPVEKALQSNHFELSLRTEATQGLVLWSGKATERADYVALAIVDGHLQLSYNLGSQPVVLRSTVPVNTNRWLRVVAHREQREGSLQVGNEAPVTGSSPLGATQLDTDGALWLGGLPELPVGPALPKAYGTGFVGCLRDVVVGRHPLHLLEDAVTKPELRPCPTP

[4] = molecular target: T5, neurotrypsin-resistant human agrin C44 y4z8K/A with N-terminal His8 tag (C44K/A)
T5 chain: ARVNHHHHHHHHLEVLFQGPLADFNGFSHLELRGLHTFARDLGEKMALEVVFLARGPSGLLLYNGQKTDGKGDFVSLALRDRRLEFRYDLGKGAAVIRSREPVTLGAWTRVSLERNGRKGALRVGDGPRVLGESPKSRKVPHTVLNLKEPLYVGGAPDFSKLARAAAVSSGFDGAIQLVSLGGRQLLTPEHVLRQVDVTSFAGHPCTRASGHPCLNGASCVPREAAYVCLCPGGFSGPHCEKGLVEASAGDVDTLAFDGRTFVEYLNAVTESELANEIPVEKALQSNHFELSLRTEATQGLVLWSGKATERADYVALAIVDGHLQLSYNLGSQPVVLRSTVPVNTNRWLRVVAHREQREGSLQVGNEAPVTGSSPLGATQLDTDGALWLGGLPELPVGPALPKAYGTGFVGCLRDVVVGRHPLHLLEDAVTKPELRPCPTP

[5] = molecular target: T6, neurotrypsin-resistant human agrin C44 y4z0K/A
T6 chain: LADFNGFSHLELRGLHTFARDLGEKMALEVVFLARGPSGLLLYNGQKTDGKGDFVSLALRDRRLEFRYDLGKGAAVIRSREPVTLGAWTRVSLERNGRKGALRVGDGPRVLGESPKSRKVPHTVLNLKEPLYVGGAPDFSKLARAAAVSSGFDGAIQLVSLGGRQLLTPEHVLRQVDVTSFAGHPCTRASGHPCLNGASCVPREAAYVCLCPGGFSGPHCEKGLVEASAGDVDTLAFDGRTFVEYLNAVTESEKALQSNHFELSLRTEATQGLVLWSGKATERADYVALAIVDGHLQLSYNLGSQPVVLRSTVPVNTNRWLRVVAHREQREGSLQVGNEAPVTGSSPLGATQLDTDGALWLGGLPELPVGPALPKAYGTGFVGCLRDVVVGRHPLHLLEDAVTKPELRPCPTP

B1: human neurotrypsin (protein)
chain: FDSVLNDSLHHSHRHSPPAGPHYPYYLPTQQRPPRTRPPPPLPRFPRPPRALPAQRPHALQAGHTPRPHPWGCPAGEPWVSVTDFGAPCLRWAEVPPFLERSPPASWAQLRGQRHNFCRSPDGAGRPWCFYGDARGKVDWGYCDCRHGSVRLRGGKNEFEGTVEVYASGVWGTVCSSHWDDSDASVICHQLQLGGKGIAKQTPFSGLGLIPIYWSNVRCRGDEENILLCEKDIWQGGVCPQKMAAAVTCSFSHGPTFPIIRLAGGSSVHEGRVELYHAGQWGTVCDDQWDDADAEVICRQLGLSGIAKAWHQAYFGEGSGPVMLDEVRCTGNELSIEQCPKSSWGEHNCGHKEDAGVSCTPLTDGVIRLAGGKGSHEGRLEVYYRGQWGTVCDDGWTELNTYVVCRQLGFKYGKQASANHFEESTGPIWLDDVSCSGKETRFLQCSRRQWGRHDCSHREDVSIACYPGGEGHRLSLGFPVRLMDGENKKEGRVEVFINGQWGTICDDGWTDKDAAVICRQLGYKGPARARTMAYFGEGKGPIHVDNVKCTGNERSLADCIKQDIGRHNCRHSEDAGVICDYFGKKASGNSNKESLSSVCGLRLLHRRQKRIIGGKNSLRGGWPWQVSLRLKSSHGDGRLLCGATLLSSCWVLTAAHCFKRYGNSTRSYAVRVGDYHTLVPEEFEEEIGVQQIVIHREYRPDRSDYDIALVRLQGPEEQCARFSSHVLPACLPLWRERPQKTASNCYITGWGDTGRAYSRTLQQAAIPLLPKRFCEERYKGRFTGRMLCAGNLHEHKRVDSCQGDSGGPLMCERPGESWVVYGVTSWGYGCGVKDSPGVYTKVSAFVPWIKSVTKL
In the case of B1, the “proteolytic digestion by human neurotrypsin, SDS-PAGE (FIG. 11)” value (shortened to “proteolytic digestion … (FIG. 11)”) [1] is reported as “the C44K/A-fragments as shown in the FIGS. 2b and 7-10 are not digested by neurotrypsin”, the “proteolytic digestion … (FIG. 11)” value [2] is reported as “the C44K/A-fragments as shown in the FIGS. 2b and 7-10 are not digested by neurotrypsin” and the “proteolytic digestion of the agrin fragment by human neurotrypsin, SDS-PAGE (Sypro ruby); control substrate with intact β-cleavage site, cleavage implied” value (human agrinC44 y4z8) is reported as “The mutation K to A in the β-cleavage site efficiently abolishes a cleavage of the agrin fragment”. For the same protein, the “proteolytic digestion … (FIG. 11)” value [3] was “the C44K/A-fragments as shown in the FIGS. 2b and 7-10 are not digested by neurotrypsin”, the “proteolytic digestion … (FIG. 11)” value [4] was “the C44K/A-fragments as shown in the FIGS. 2b and 7-10 are not digested by neurotrypsin” and the “proteolytic digestion of the agrin fragment by human neurotrypsin, SDS-PAGE (Sypro ruby)” value [4] was “The mutation K to A in the β-cleavage site efficiently abolishes a cleavage of the agrin fragment”. For the same protein, the “proteolytic digestion … (FIG. 11)” value [5] was “the C44K/A-fragments as shown in the FIGS. 2b and 7-10 are not digested by neurotrypsin”.

From patent US20120208765
